In patent publication US6521458:

Molecular target: barnase (UniProt P00648)
Experiment: cell-based or functional assay

Sequence of UniProt P00648 (P00648 48-157 limits assumed): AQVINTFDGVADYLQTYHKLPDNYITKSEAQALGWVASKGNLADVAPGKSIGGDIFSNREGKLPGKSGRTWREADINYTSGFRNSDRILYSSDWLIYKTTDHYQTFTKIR

barstar (from UniProt P11540 2-90)
percent LUC positive shoots from barstar5 explants transformed with pBH700 (against 15% from wild type explants without barstar): 46%
